# Laboratory results as given in article PMC6327041, “Histone H3 binding to the PHD1 domain of histone demethylase KDM5A enables active site remodeling” (Nature Communications, 2019).
# B1: unmodified H3 10mer effector peptide (H3 Ala1-Ser10) [not stated] / GST-PHD1 (S287-K347) of KDM5A [human] (parent)
# chain 1: ARTKQTARKS
# chain 2: SVNFVDLYVCMFCGRGNNEDKLLLCDGCDDSYHTFCLIPPLPDVPKGDWRCPKCVAEECSK
# Variants of: B1
# Assay: competition-based fluorescence polarization assay
# Settings: with GST-PHD1 (S287-K347) of KDM5A [human]
row,Kd,Variant
1,205 µM,chain 1 R2A
